This data set deals with Tgt "wild type" (tRNA-guanine transglycosylase) (Zymomonas mobilis). The data set can be described thus: MST. The note with it: buffer, salt, pH and temperature not given in the material.

Data on 1 substance can be found in publication PMC3660597, “Investigation of Specificity Determinants in Bacterial tRNA-Guanine Transglycosylase Reveals Queuine, the Substrate of Its Eucaryotic Counterpart, as Inhibitor” (PLoS ONE, 2013).

For tRNATyr, the Kd was 36.2 nM.

The Kd is the constant that tells how readily two partners part at equilibrium.
